For assay [1], the target named is His-SNAP-Mtb Ku (Mycobacterium tuberculosis) (UniProt P9WKD9). Description: SEC. On the technique in general: SEC sorts molecules by how far they enter the pores of the column.
Another assay has as its target Mtb LigD WT (Mycobacterium tuberculosis, UniProt P9WNV3 1-759). In words: […].

Sequence of Mtb LigD WT (P9WNV3 whole entry): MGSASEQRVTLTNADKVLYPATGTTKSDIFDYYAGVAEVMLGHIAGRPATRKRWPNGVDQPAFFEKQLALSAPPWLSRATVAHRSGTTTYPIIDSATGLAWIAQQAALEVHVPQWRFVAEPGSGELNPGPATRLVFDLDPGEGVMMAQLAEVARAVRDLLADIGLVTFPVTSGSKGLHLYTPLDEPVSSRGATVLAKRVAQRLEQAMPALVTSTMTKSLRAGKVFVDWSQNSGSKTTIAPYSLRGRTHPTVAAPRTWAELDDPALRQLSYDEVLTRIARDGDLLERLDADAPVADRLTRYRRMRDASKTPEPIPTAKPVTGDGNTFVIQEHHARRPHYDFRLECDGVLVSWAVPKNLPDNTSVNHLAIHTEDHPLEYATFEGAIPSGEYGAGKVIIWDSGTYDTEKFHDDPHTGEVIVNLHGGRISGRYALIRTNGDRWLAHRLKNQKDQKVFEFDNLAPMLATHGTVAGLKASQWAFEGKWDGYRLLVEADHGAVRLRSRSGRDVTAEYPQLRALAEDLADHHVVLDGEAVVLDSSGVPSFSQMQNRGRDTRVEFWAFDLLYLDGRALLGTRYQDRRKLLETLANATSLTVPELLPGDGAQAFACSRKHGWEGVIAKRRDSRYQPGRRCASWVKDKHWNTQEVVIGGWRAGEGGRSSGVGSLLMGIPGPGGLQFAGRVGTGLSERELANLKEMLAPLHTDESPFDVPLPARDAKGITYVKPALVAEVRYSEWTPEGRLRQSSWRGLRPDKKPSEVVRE

The term stoichiometry N denotes a count of units in the complex or per binding partner. Take “His-SNAP-Mtb Ku (from UniProt P9WKD9 1-273) (natural protein)”: the stoichiometry N in assay [1] was 2.

B1: His-SNAP-Mtb Ku (natural protein)
chain: MRAIWTGSIAFGLVNVPVKVYSATADHDIRFHQVHAKDNGRIRYKRVCEACGEVVDYRDLARAYESGDGQMVAITDDDIASLPEERSREIEVLEFVPAADVDPMMFDRSYFLEPDSKSSKSYVLLAKTLAETDRMAIVHFTLRNKTRLAALRVKDFGKREVMMVHTLLWPDEIRDPDFPVLDQKVEIKPAELKMAGQVVDSMADDFNPDRYHDTYQEQLQELIDTKLEGGQAFTAEDQPRLLDEPEDVSDLLAKLEASVKARSKANSNVPTPP
With B1, the binding result with Mtb LigD WT was “binds”.
